According to patent JP2021042960A (dated 2021):

How the values were obtained:
ヒトCLDN1タンパク質 = biological target: T1, ヒトCLDN1タンパク質 (human, UniProt O95832 1-211); assay: immunohistochemistry on paraffin sections of HEK293T cells expressing the CLDN
T1 construct: whole, on cells; Expressed with Venus in HEK293T cells; formalin-fixed paraffin sections of cell pellets
T1 sequence (looked up): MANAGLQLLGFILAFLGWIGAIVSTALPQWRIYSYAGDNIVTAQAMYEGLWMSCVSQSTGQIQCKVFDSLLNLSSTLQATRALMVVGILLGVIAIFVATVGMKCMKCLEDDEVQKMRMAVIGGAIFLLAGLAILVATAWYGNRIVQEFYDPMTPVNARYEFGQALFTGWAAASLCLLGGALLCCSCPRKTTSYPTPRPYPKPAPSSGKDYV

ヒトCLDN4タンパク質 = biological target: T2, ヒトCLDN4タンパク質 (human, UniProt O14493 1-209); assay: as above
T2 construct: whole, on cells; Expressed with Venus in HEK293T cells; formalin-fixed paraffin sections of cell pellets
T2 sequence (looked up): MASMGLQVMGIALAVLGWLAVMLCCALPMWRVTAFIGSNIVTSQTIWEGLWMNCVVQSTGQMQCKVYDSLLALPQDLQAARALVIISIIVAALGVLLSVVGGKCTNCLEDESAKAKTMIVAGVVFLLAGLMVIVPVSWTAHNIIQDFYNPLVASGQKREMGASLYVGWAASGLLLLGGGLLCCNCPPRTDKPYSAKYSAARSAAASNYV

ヒトCLDN5タンパク質 = biological target: T3, ヒトCLDN5タンパク質 (human, UniProt O00501 1-218); assay: as above
T3 construct: whole, on cells; Expressed with Venus in HEK293T cells; formalin-fixed paraffin sections of cell pellets
T3 sequence (looked up): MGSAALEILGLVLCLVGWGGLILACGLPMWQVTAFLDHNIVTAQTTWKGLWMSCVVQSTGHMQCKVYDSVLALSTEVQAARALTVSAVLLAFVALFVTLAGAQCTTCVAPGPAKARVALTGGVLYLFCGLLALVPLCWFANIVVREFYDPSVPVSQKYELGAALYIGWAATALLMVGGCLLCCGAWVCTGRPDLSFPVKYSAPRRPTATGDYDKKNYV

ヒトCLDN6タンパク質 = biological target: T4, ヒトCLDN6タンパク質 (human, UniProt P56747 1-220); assay: as above
T4 construct: whole, on cells; Expressed with Venus in HEK293T cells; formalin-fixed paraffin sections of cell pellets
T4 sequence (looked up): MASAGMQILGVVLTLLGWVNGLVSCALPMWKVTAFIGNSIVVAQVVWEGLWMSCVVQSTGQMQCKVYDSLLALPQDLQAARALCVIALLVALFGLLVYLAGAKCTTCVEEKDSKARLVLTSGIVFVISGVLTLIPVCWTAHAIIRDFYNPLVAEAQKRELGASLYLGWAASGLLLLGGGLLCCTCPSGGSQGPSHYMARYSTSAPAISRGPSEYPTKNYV

ヒトCLDN9タンパク質 = biological target: T5, ヒトCLDN9タンパク質 (human, UniProt O95484 1-217); assay: as above
T5 construct: whole, on cells; Expressed with Venus in HEK293T cells; formalin-fixed paraffin sections of cell pellets; also called CLDN9
T5 sequence (looked up): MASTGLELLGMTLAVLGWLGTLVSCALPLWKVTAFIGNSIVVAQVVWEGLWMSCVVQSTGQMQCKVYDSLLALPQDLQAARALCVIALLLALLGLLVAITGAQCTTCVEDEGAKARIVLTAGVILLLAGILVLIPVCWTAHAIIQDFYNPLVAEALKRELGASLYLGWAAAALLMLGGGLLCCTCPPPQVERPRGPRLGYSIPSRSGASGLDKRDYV

ヒトCLDN15タンパク質 = biological target: T6, ヒトCLDN15タンパク質 (human, UniProt P56746 1-228); assay: immunohistochemistry on paraffin sections of CLDN-expressing cell pellets and of patients' malignant pleural mesothelioma tissue
T6 construct: Expressed in HEK293T cells from a plasmid that also expresses Venus; 228 residues, four-pass membrane protein; also called クローディン15; WT
T6 sequence: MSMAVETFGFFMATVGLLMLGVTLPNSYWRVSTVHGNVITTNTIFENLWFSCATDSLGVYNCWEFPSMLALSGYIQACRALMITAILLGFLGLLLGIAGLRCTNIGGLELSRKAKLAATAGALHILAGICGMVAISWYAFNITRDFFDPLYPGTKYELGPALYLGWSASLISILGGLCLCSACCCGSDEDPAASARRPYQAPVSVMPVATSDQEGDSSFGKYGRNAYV

- binding result (ヒトCLDN1タンパク質): no binding
- binding result (ヒトCLDN4タンパク質): no binding
- binding result (ヒトCLDN5タンパク質): no binding
- binding result (ヒトCLDN6タンパク質): no binding
- binding result (ヒトCLDN9タンパク質): no binding
- binding result (ヒトCLDN15タンパク質): binds
B1: ラット抗ヒトCLDN15モノクローナル抗体クローン2C11 (antibody, V domains shown)
VH: AVQLVESGGGLVQPKESLKISCAASGFTFSNAAMYWVRQAPGKGLEWVARIRTKPNNYATYYADSVKGRFTISRDDSKSMVYLQMDNLKTEDSAMYYCTAPAYYFGYWGQGVMVTVSS
VL: DVVLTQTPPTLSATIGQSVSISCRSSQSLLHSNGNTYLHWLLQRPGQSPQLLIYLVSRLESGVPNRFSGSGSGTDFTLKISGVEAEDLGVYYCVQGTHAPWTFGGGTKLELK
notes: Rat monoclonal antibody from a hybridoma, used as culture supernatant and detected with anti-rat IgG-HRP; also called 2C11抗体; 抗CLDN15モノクローナル抗体(2C11)
